Measurements published in a protein production outcome set (Wang et al. 2014).

assay: label from the status in PepcDB records
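Further: failed if final PepcDB status was selected cloned or expressed and not failed if soluble or beyond.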

Protein production, not failed:
MTAYIIVGLTPKDAEKLQQYGARVASTLAKYSGEVLVKGSVEQLHGKFEHKAQVILEFPSREDAYNWYHSEEYQALISTRDLGMDSQFQLIG
MTDAPADAPLDADARRAVKPVICYPNDSLPRPDLALYRAARASARKTGEVLVPPREGRCFEVKAGQFFRISSVEGPQVGDLNLHNLHDLTERFFSGKTRALHGTHVTTGERLWSNLPYLRPMATIIEDTLGWYGIDQYGGSVHDVIGTRCDPYTGNLLAGGHYHHCCHSNLTRALADHTGLPLHEAEMLVHDVLNVFMCTGFTRDTGQYFMKASPVRPGDYLEFFAEIDLLGNLSACPGGDCSSEHSSDTASCHPLLVEIFAPAEGMLGDWPSPSVNGYDRSHGR
MTDEKKVPSKPARPARKPRADKPADAKPAAVPKVAAPAVVEGSSTNAAAVKKSLRDGGMTALPSEILFAVGSIPLVVDKDALSTLAAALVASDDPSTWFVANRELIRAVVFVPQQNNVLRATPLLSVRPVASLSSVHNWQVRNHLSGLHVVVGGTGAGKSKWLNAQTPDVTIRWGEPGETFDMEESSIAVADLTEMLAVALLLATADYRVVIDSFRNLVFGITGAAGPGGVSVALYAALTSLNNICAELGVLLVAAINPMSSDDKVSLVYNNIAASVAGMTVVNNAAVVSQTIRSGTGRIFSGEPAPRNDSPVEYHEPRHTQLDEPSGPSARIRLESNNIDPDDENDNRPRRGARISL

Protein production, failed:
MTAYWIAHVTIHDMQQYQEYMKLAPAAFQKYGAKFLARGGESVCVEGQAYQRHVIIEFPDLATAQQCYDSEEYKQARLAREGCADVMISFVEG
MTCLFSDAPIPDHLYGAIVALGNFDGFHLGHQAVVAAAVARGHAEGRPVIVATFDPHPVRFFCPDLPPFALTTIPQRARLFEKAGADATFVIRFSEAMANLSPEEFIQQQIIDHLKAAGVVTGRDFTFGKGRKGGVDLLQAMGQNLNISVDTIMPVCDQQGAISSTRIREALKQGDPETAARLLSRP
MTDAAALPGQPRGGVLSGPATRRAVNVLAPNASAMTLDGTNTWIVAEPDSELAVVIDPGPLDDVHLRNVVDTAERAGRRIALTLLTHGHPDHAEGAARFAELTGTNVRALDPALRLGDEGLAPGDVVTVGGLELRVVPTPGHTSDSLCFHLPADRAVLTGDTVLGRGTTVVAHPDGRLGDYLDSLRRLRSLTVDDGVHTVLPGHGPVLDDAQGAVEFYLAHRAHRLAQVETAVENGYRAPAEVVAHVYADVDRSLWPAAELSVRAQMDYLREHGLI
MTDFQKQFFARLNIEEKQKVSFEDLSNIMYAMAQTVPFENLNVLEKNFKEISQENLKEKILVNNRGGLCYELNPTMYYFLKDAGFDVYLVSGTVYNAANSIWAVDSGHIATILKHHNELYLIEVGFGSYLPLAPVPFSGEVVQSVTGDYRIRKEMTEKGNYMLEMRKNDEFLDQSSTDDWTLGYAFYIEEVDEKKQMQHKKLLLNTMAHHLTKYLLL
MTDIFLEGGRALIGTELVETSLSVAGTDIARVDAARGRARLAIDARNLLVLPGIVDLHGDAFERQMMPRAGVDFPIDVALADSDRQAISNGITTVFHATTCSWEPGLRSADNARGLMEAIERQRPQFAADTRFHLRHETYNLDAEAEISRWLAEGRVDLFAFNDHMDGTVADMAKPRKRNRMVERTGLSSEDFDGLVDRVISRAADVPASVSRLAASARAADVRMLSHDDATPAMRREFRELGADIAEFPINEETARAAASHGDAIVYGAPNVVRGGSHTGWTRASDMIAKGLCSVLASDYYYPAQLLAAFRLAADGVLPLTEAWSLVSAEPARAAGLADRGILAEGRRADILLVDDTVPLRPRLVAVISGGKLVHLTDATRLLSAAAAPREAVVAA
MTDIIREYYNKNSKNEWLRLNDPYNRLELFSTMYMIKEYFPQEGKILDIGSGPGRYSIELLKRGYEVSLMDLSEKSIDMAKNNIESMGLKANDYICGDALYLDFIKDNTFDGILLMGPMYHVKSREDRIRILENCMRILKPGGIILIAYINSLGVLKVGLSDFPQEYKDINKIYDLFDEKGFSQEESFTETYFTVPEKAISEVNEVGFNILSRAGAESFLSGQAFYMTKYYLEDKEIYFNLLKVATEKCEDERFRDSTEHLIIVAKK
MTDIMARFVGYTGKVLPDDVTAKLQDLHKKETSQLADVIFTTMIENQRLAKELDRPSCQDTGVIQFLVECGANFPLIGELEALLRESVIKATIDSPLRHNSVETFDEYNTGKNVGKGTPTVFWEIVPNSDQCSIYTYMAGGGCSLPGKAMVLMPGAGYEGVTRFVLDVMTSYGLNACPPLLVGVGVATSVETAALLSKKALMRPIGSHNDNERAALLEKMLEDGINKIGLGPQGMSGNTSVMGVNIENTARHPSTIGVAVNVGCWSHRKGHIVFDKDLNYTITSHKGVAF
MTDIVLADRYRLGDVIGTGGMSEVYEATDVLLGRKVAVKMLRADLARDVNFRERFRREAQNSGKLNHPAIVAVYDTGETPRAGLNTPYIVMELVNGRTLRDIVREDGPLTPSQAAHTLIPVCHALQVSHDAGIIHRDIKPANVMITNTGAVKIMDFGIARALDDATSAMTQTSAVIGTAQYLSPEQARGKLADARSDVYALGCVLYETLTGKPPFEGETPFAVAYQHVQEDPVKPSEYIADLSPTAAINVDAVVLTAMAKHPGDRYQTAQEMCADLERLGRNAVTDAARHYVTPTSFATQDPASTTVVPVTQVTELDHAEAGAGIGAGVVPAGAVAGSAAVAGSGGAHAAPRSSNRGLRILAAILAVLVLAVGAGFAIDYFGGGPFSQRSTVTIPKLQNSTQQDAVNQLEKLGLQVNVIEEPNPDIPRGKVIRTNPTDGSNVQRNSTVRLTISSGKEITEVPDLSGKNTADAVKILEAAGLLLDPTVREDSSDTVPKGEIIEVSPAAGSQVSRGSKVSITVSTGVETVRVPVITGMKWDQAEGNLTSLGFKPEVVRVDSVEPAGTVVAVPDEGAEVPKGSSVTVQISNGAMFTVPEITRQTIDDAVRILHDAGWKGNASRLIQAAKVPTVAVTDQNLIASQLPTPGTALRKDAPIEIRLYEFNLAALVPPAQH
MTDLELQQLTQRIAQESFGKSFPYKVVFNQRLKTTGGRYHLNDHHIDINPLMLEEFDEATLIGVIKHELVHYFVHMLNEKPDHRNPHFQQLLRAVGGLRYAPTTSKRRRTPPKLLYQCQGCGLQYPRQRRINTRKYVCSKCRGRLKLL
MTDLLLDGSEADNAQTVLNAARIELLSPRLANQIAAGEVVERPASVIKELLENSLDSGARRIDIDVEQAGIKLLKVRDDGGGISSDDLPLALARHATSKIRDLEDLERVMSLGFRGEALASISSVARLTLTSRTRDADQAWQVETEGRDMDARVQPAAHPVGTSVEVRDLFFNTPARRKFLKAEKTEFDHLHEVIKRMALARFDVAFHLRHNGKTVLSLHEAHDDTARARRVSAICGPGFLEQALPIEIERNGLHLWGWVGLPTFSRSQADLQYFFVNGRAVRDKLVAHAVRQAYRDVLFNGRHPTFVLFFEVDPAAVDVNVHPTKHEVRFRDGRMVHDFLYGTLHRALGDVRPENQLGGSVPAAAEPRPTGPDAGEFGPQGEMRLANNVLEQPQGEPFARPAGGGSGSGYQYSPRPTTGVPVAEAQSAYREFFAPLPGTTPSALPESPSDIPPLGYALAQLKGIYILAENAHGLVLVDMHAAHERIMYERLKIAMANEGLSGQPLLVPESIAVSQREADCAEEHITTFQRLGFELQRLGPETLAIRQIPALLKQAEANRLVSDVLADLMEYGTSDRVQAHMNELLGTMACHGAIRANRRLAIPEMNGLLRDMENTERSGQCNHGRPTWTQMGLSDLDKLFLRGQ
MTDNSPPPNGHAQARVRKNNTFLSAVWLVPLIALIAGGWLWVKEIRNRGPVVTLLMDSAEGIEVNNTVIKVLSIDVGRVTRIKLRDDQKGVEVTAQLNADVSGLIRSDTQFWVVKPRIDQSGVTGLGTLLSGSYIAFTPGKSDEAKDVFQVQDIPPVTAIGQSGLRLNLIGKNDRILNVNSPVLYENFMVGQVESAHFDPSDQSVHYTIFIQSPNDKLIHSASRFWLESGINIETTGSGIKLNSAPLPALLSGAISFDSPKTKNSKNVKSEDSFTLYDSRSEVANLPDDRSLYYTAFFKQSVRGLTVGSPVEYKGLNVGVVSDVPYFDRNDSLHLFENGWIPVRIRIEPSRLEINADEQSKEHWKQQFQTALNKGLTATISSNNLLTGSKMIELNDQPSASPKLRPHTVYAGDTVIATQGGGLDDLQVKLADLLDKFDKLPLDKTVAELNGSLAELKSTLKSANAALSSIDKLVGKPQTQNIPNELNQTLKELRTTLQGVSPQSPIYGDVQNTLQSLDKTLKDVQPVINTLKEKPNALIFNSSSKDPIPKGSR
